Reference: patent US20200317768A1 (published 2020)

T1: cynomolgus monkey FcγRIIa3 extracellular domain, C-terminal His-tag (cynomolgus monkey)
T1 construct: also called cyno FcγRIIa3; cynoFcgRIIa3; not shown: His-tag added to C-terminus
T1 chain: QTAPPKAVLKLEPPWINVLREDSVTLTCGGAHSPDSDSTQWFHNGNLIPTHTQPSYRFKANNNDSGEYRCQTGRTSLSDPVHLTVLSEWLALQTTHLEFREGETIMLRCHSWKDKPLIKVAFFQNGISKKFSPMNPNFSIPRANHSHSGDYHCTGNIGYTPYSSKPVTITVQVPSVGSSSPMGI

T2: cynomolgus monkey FcγRIIa1 extracellular domain, C-terminal His-tag (cynomolgus monkey)
T2 construct: also called cyno FcγRIIa1; cynoFcgRIIa1; not shown: His-tag added to C-terminus
T2 chain: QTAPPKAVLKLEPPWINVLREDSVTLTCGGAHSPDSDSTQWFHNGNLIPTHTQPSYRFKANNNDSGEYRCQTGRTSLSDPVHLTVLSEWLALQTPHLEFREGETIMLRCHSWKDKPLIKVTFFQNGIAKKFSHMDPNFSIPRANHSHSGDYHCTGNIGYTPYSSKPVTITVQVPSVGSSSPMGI

T3: human FcγRIIaR extracellular domain, C-terminal His-tag (human, UniProt P12318 34-217)
T3 construct: also called human FcγRIIa (type R); FcgRIIaR; not shown: His-tag added to C-terminus
T3 chain: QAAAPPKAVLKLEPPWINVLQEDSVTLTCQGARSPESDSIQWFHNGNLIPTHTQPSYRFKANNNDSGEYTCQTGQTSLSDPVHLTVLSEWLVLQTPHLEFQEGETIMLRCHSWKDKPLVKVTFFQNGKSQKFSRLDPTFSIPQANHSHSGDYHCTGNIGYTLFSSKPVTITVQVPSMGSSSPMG

T4: human FcγRIIb extracellular domain, C-terminal His-tag (human, UniProt P31994 43-217)
T4 construct: also called humanFcgRIIb; not shown: His-tag added to C-terminus
T4 sequence: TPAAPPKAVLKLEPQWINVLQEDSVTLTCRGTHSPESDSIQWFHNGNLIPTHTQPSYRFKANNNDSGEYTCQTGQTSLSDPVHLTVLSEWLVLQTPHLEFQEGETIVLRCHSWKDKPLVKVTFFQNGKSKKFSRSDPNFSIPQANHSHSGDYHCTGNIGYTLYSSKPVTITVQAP

T5: human FcγRIIaH extracellular domain, C-terminal His-tag (human, UniProt P12318 34-217)
T5 construct: also called human FcγRIIa (type H); FcgRIIaH; not shown: His-tag added to C-terminus
T5 sequence: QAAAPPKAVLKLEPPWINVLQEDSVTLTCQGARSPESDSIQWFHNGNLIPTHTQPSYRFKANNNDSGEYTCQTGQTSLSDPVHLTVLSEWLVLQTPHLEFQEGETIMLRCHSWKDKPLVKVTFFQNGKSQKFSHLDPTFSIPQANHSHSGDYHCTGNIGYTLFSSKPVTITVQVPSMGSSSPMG

T6: cynomolgus monkey FcγRIIb extracellular domain, C-terminal His-tag (cynomolgus monkey)
T6 construct: also called cyno FcγRIIb; cynoFcγRIIb; not shown: His-tag added to C-terminus
T6 chain: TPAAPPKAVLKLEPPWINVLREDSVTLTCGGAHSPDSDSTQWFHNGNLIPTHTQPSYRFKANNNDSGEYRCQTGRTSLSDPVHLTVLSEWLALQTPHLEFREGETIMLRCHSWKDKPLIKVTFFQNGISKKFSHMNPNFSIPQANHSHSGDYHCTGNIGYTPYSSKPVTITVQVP

T7: cynomolgus monkey FcγRIIa2 extracellular domain, C-terminal His-tag (cynomolgus monkey)
T7 construct: also called cyno FcγRIIa2; cynoFcgRIIa2; not shown: His-tag added to C-terminus
T7 chain: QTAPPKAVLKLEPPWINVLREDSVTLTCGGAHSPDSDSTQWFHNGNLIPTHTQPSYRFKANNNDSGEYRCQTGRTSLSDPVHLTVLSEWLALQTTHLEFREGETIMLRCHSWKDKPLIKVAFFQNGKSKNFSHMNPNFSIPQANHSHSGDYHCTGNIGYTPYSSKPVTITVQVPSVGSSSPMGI

B1: M103205H795-MY335 / M103202L889-SK1 (antibody, human IgG1, kappa)
heavy: QVTLKESGPVLVKPTETLTLTCTVSGIDLSHDDISWVRQAPGKGLEWVGIISYAGSTYYASWAKGRLTISKDTSKNQVVLTMTNMDPVDTATYYCARGVPAYSHGGDLWGQGTLVTVSSASTKGPSVFPLAPSSKSTSGGTAALGCLVKDYFPEPVTVSWNSGALTSGVHTFPAVLQSSGLYSLSSVVTVPSSSLGTQTYICNVNHKPSNTKVDKKVEPKSCDKTHTCPPCPAPELLTGPSVFLFPPKPKDTLMISRTPEVTCVVVDVSDEDPEVKFNWYVDGVEVHNAKTKPREEQYNSTYRVVSVLTVLHRDWLNGKEYKCKVSNKALPKPIEKTISKAKGQPREPQVYTLPPSREEMTKNQVSLTCLVKGFYPSDIAVEWESNGQPENNYKTTPPVLDSDGSFFLYSKLTVKKSRWQQGNVFSCSVMHEALHNHYTQKSLSLSP
light: DIVMTQSPATLSLSPGERATLSCTSSQSVYHANWLSWFQQKPGQPPKLLIYWASTLAYGVPSRFSGSGSGTDFTLTISSLQPEDAATYYCAGGYGGGRYAFGQGTKVEIKRTVAAPSVFIFPPSDEQLKSGTASVVCLLNNFYPREAKVQWKVDNALQSGNSQESVTEQDSKDSTYSLSSTLTLSKADYEKHKVYACEVTHQGLSSPVTKSFNRGEC
notes: CH with G236T/H268D/Q311R/A330K/D413K against SG1 (EU numbering); also called MS1032LO06-MY335
B2: M103205H795-MY344 / M103202L889-SK1 (antibody, human IgG1, kappa)
heavy: QVTLKESGPVLVKPTETLTLTCTVSGIDLSHDDISWVRQAPGKGLEWVGIISYAGSTYYASWAKGRLTISKDTSKNQVVLTMTNMDPVDTATYYCARGVPAYSHGGDLWGQGTLVTVSSASTKGPSVFPLAPSSKSTSGGTAALGCLVKDYFPEPVTVSWNSGALTSGVHTFPAVLQSSGLYSLSSVVTVPSSSLGTQTYICNVNHKPSNTKVDKKVEPKSCDKTHTCPPCPAPELLNGPSVFLFPPKPKDTLMISRTPEVTCVVVDVSDEDPEVKFNWYVDGVEVHNAKTKPREELYNSTYRVVSVLTVLHRDWLNGKEYKCKVSNKALPKPIEKTISKAKGQPREPQVYTLPPSREEMTKNQVSLTCLVKGFYPSDIAVEWESNGQPENNYKTTPPVLDSDGSFFLYSKLTVKKSRWQQGNVFSCSVMHEALHNHYTQKSLSLSP
light: DIVMTQSPATLSLSPGERATLSCTSSQSVYHANWLSWFQQKPGQPPKLLIYWASTLAYGVPSRFSGSGSGTDFTLTISSLQPEDAATYYCAGGYGGGRYAFGQGTKVEIKRTVAAPSVFIFPPSDEQLKSGTASVVCLLNNFYPREAKVQWKVDNALQSGNSQESVTEQDSKDSTYSLSSTLTLSKADYEKHKVYACEVTHQGLSSPVTKSFNRGEC
notes: CH with G236N/H268D/Q295L/Q311R/A330K/D413K against SG1 (EU numbering); also called MS1032LO06-MY344
B3: M103205H795-MY351 / M103202L889-SK1 (antibody, human IgG1, kappa)
heavy: QVTLKESGPVLVKPTETLTLTCTVSGIDLSHDDISWVRQAPGKGLEWVGIISYAGSTYYASWAKGRLTISKDTSKNQVVLTMTNMDPVDTATYYCARGVPAYSHGGDLWGQGTLVTVSSASTKGPSVFPLAPSSKSTSGGTAALGCLVKDYFPEPVTVSWNSGALTSGVHTFPAVLQSSGLYSLSSVVTVPSSSLGTQTYICNVNHKPSNTKVDKKVEPKSCDKTHTCPPCPAPELLNGPSVFLFPPKPKDTLMISRTPEVTCVVVDVSDEDPEVKFNWYVDGVEVHNAKTKPREEQYNSTYRVVSVLTVLHRDWLNGKEYKCKVSNKALPKPIEKTISKAKGQPREPQVYTLPPSREEMTKNQVSLTCLVKGFYPSDIAVEWESNGQPENNYKTTPPVLDSDGSFFLYSKLTVKKSRWQQGNVFSCSVMHEALHNHYTQKSLSLSP
light: DIVMTQSPATLSLSPGERATLSCTSSQSVYHANWLSWFQQKPGQPPKLLIYWASTLAYGVPSRFSGSGSGTDFTLTISSLQPEDAATYYCAGGYGGGRYAFGQGTKVEIKRTVAAPSVFIFPPSDEQLKSGTASVVCLLNNFYPREAKVQWKVDNALQSGNSQESVTEQDSKDSTYSLSSTLTLSKADYEKHKVYACEVTHQGLSSPVTKSFNRGEC
notes: CH with G236N/H268D/Q311R/A330K/D413K against SG1 (EU numbering); also called MS1032LO06-MY351
B4: M103205H795-PK2 / M103202L889-SK1 (antibody, human IgG1, kappa)
heavy: QVTLKESGPVLVKPTETLTLTCTVSGIDLSHDDISWVRQAPGKGLEWVGIISYAGSTYYASWAKGRLTISKDTSKNQVVLTMTNMDPVDTATYYCARGVPAYSHGGDLWGQGTLVTVSSASTKGPSVFPLAPSSKSTSGGTAALGCLVKDYFPEPVTVSWNSGALTSGVHTFPAVLQSSGLYSLSSVVTVPSSSLGTQTYICNVNHKPSNTKVDKKVEPKSCDKTHTCPPCPAPELLNGPSVFLFPPKPKDTLMISRTPEVTCVVVDVSEEDPEVKFNWYVDGVEVHNAKTKPREEQYNSTYRVVSVLTVLHQDWLNGKEYKCKVSNKALPKPIEKTISKAKGQPREPQVYTLPPSREEMTKNQVSLTCLVKGFYPSDIAVEWESNGQPENNYKTTPMVLDRDGSFFLYSKLTVKKSRWQQGNVFSCSVMHEALHNHYTQKSLSLSP
light: DIVMTQSPATLSLSPGERATLSCTSSQSVYHANWLSWFQQKPGQPPKLLIYWASTLAYGVPSRFSGSGSGTDFTLTISSLQPEDAATYYCAGGYGGGRYAFGQGTKVEIKRTVAAPSVFIFPPSDEQLKSGTASVVCLLNNFYPREAKVQWKVDNALQSGNSQESVTEQDSKDSTYSLSSTLTLSKADYEKHKVYACEVTHQGLSSPVTKSFNRGEC
notes: CH with G236N/H268E/A330K/P396M/S400R/D413K against SG1 (EU numbering); also called MS1032LO06-PK2; MS103205H795-PK2

Experiments:
[1] = target: T1, cynomolgus monkey FcγRIIa3 …; assay: SPR (BIACORE), antibody captured, FcγR analyte
Protocol: (§1) The kinetic analysis of interactions between these antibodies and FcγR was carried out using BIACORE® T200 or BIACORE® 4000 (GE Healthcare). HBS-EP+ (GE Healthcare) was used as the running buffer, and the measurement temperature was set to 25° C. A chip produced by immobilizing Protein A. Protein A/G or mouse anti-human IgG kappa light chain (BD Biosciences) onto a Series S Sensor Chip CM4 or CM5 (GE Healthcare) by the amine-coupling method was used. […] After the measurement, the antibody captured on the chip was washed off by allowing reaction with 10 mM glycine-HCl, pH1.5 and 25 mM NaOH so that the chip was regenerated and used repeatedly. The sensorgrams obtained as measurement results were analyzed by the 1:1 Langmuir binding model using the BIACORE® Evaluation Software to calculate the binding rate constant ka (L/mol/s) and dissociation rate constant kd (l/s), and the dissociation constant KD (mol/L) was calculated from these values. […] Regarding such interactions, KD values were calculated using the following 1:1 binding model described in BIACORE® T100 Software Handbook BR1006-48 Edition AE.
(§2) The behavior of interacting molecules according to the 1:1 binding model on BIACORE® can be described by Equation 1: Req=C·R max/(KD+C)+RI, wherein, Req is a plot of steady-state binding levels to analyte concentration. C is concentration, RI is bulk refractive index contribution in the sample, and Rmax is analyte binding capacity of the surface. When this equation is rearranged, KD can be expressed as Equation 2: KD=C·Rmax/(Req−RI)−C. KD can be calculated by substituting the values of Rmax, RI, and C into Equation 1 or Equation 2. From the current measurement conditions, RI=0, C=2 μmol/L can be used.

[2] = target: T2, cynomolgus monkey FcγRIIa1 …; assay: SPR (BIACORE), antibody captured, FcγR analyte
Protocol: as §1, §2

[3] = target: T3, human FcγRIIaR extracellular domain, …; assay: SPR (BIACORE), antibody captured, FcγR analyte
Protocol: as §1, §2

[4] = target: T4, human FcγRIIb extracellular domain, …; assay: SPR (BIACORE); KD of SG1 / KD of variant;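 note: relative to parent M103205H795-SG1 carrying the SG1 human heavy chain constant region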
[5] = target: T5, human FcγRIIaH extracellular domain, …; assay: SPR (BIACORE); KD of SG1 / KD of variant;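 note: relative to parent M103205H795-SG1 carrying the SG1 human heavy chain constant region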
[6] = target: T6, cynomolgus monkey FcγRIIb extracellular …; assay: SPR (BIACORE); KD of SG1 / KD of variant;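 note: relative to parent M103205H795-SG1 carrying the SG1 human heavy chain constant region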
[7] = target: T7, cynomolgus monkey FcγRIIa2 …; assay: SPR (BIACORE); KD of SG1 / KD of variant;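 note: relative to parent M103205H795-SG1 carrying the SG1 human heavy chain constant region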
[8] = target: T3, human FcγRIIaR extracellular domain, …; assay: SPR (BIACORE); KD of SG1 / KD of variant

Row | Binder | Kd [1] | Kd [2] | Kd [3] | KD fold (SG1 = 1) [4] | KD fold (SG1 = 1) [5] | KD fold (SG1 = 1) [6] | KD fold (SG1 = 1) [7] | KD fold (SG1 = 1) [8]
1 | B1 | 2700 nM | 2000 nM | 290 nM | 2 fold | 2.4 fold | 2.8 fold | 3 fold | 3.8 fold
2 | B2 | 2200 nM | 890 nM | 1200 nM | 6.4 fold | 1 fold | 5.8 fold | 4.6 fold | 0.9 fold
3 | B3 | 1900 nM | 920 nM | 1800 nM | 3.8 fold | 0.7 fold | 5.1 fold | 6.7 fold | 0.7 fold
4 | B4 | 3800 nM | 1300 nM | 1100 nM | 7.8 fold | 1.2 fold | 4.7 fold | 3.9 fold | 1 fold
